Laboratory results taken from patent US20220332804A1 (CSL INNOVATION, published 2022).

Legend:
Assay in all cases: SPR, antibody captured, C2 as analyte;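 further: biacore SPR at 37 °C, anti-C2 mAbs captured via goat anti-human IgG on CM5 chips, double-referenced sensorgrams fit to a 1:1 kinetic or steady-state model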
human C2 K274A = target: T1, human C2 K274A (human, UniProt P06681 21-752)
T1 sequence: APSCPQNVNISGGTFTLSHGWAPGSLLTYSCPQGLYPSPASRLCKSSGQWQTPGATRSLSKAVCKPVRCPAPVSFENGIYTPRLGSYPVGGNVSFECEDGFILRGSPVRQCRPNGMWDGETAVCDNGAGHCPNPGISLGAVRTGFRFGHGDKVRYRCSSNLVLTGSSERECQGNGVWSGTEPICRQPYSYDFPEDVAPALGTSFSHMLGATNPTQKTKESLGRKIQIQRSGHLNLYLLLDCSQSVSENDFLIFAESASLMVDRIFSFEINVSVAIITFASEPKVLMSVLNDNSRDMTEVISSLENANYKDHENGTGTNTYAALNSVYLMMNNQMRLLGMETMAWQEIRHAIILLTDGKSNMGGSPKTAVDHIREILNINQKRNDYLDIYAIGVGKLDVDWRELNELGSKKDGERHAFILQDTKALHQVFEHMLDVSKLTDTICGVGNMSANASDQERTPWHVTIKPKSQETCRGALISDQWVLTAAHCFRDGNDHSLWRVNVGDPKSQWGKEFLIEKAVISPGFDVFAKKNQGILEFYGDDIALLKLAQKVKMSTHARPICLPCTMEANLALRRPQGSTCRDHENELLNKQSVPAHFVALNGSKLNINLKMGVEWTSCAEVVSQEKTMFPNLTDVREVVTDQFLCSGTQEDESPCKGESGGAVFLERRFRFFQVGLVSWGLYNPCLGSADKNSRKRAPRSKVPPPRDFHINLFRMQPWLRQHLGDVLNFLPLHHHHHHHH

human C2 N467A = target: T2, human C2 N467A (human, UniProt P06681 21-752)
T2 sequence: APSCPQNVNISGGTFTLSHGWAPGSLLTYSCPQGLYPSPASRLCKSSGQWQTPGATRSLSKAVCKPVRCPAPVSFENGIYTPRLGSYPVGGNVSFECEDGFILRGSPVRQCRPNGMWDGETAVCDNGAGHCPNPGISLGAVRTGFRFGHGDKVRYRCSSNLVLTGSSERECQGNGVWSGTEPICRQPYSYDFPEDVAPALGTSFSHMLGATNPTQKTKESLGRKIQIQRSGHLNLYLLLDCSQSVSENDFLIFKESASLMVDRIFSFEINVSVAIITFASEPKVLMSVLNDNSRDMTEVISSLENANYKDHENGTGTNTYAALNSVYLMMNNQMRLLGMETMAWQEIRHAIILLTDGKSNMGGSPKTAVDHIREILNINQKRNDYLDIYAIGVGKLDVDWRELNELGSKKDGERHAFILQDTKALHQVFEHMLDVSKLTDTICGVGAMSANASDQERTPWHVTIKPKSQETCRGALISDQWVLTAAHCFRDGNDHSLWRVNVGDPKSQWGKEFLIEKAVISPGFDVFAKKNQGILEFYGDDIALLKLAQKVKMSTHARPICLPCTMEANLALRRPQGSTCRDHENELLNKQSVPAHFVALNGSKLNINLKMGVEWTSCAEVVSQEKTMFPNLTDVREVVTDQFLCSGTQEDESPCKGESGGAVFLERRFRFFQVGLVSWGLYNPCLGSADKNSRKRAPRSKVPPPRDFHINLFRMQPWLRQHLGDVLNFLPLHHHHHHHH

human C2 D454A = target: T3, human C2 D454A (human, UniProt P06681 21-752)
T3 sequence: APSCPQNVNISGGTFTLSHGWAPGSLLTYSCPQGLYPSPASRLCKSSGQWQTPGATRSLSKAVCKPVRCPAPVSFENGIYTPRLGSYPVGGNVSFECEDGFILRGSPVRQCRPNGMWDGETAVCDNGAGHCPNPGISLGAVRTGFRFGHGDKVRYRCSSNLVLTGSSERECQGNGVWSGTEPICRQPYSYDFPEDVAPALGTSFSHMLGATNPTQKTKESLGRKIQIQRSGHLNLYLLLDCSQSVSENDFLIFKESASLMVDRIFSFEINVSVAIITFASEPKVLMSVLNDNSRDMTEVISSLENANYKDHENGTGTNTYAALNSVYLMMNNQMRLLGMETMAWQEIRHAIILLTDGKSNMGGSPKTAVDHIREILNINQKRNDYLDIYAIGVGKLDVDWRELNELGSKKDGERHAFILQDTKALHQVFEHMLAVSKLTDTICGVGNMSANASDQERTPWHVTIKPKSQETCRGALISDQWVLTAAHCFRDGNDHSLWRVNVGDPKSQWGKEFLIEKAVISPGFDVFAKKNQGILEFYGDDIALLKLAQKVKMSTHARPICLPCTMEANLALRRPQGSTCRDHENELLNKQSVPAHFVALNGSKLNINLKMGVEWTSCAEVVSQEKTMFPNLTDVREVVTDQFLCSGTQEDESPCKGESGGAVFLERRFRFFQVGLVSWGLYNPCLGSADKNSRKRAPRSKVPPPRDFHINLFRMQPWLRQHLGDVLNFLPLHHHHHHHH

human C2 N471A = target: T4, human C2 N471A (human, UniProt P06681 21-752)
T4 sequence: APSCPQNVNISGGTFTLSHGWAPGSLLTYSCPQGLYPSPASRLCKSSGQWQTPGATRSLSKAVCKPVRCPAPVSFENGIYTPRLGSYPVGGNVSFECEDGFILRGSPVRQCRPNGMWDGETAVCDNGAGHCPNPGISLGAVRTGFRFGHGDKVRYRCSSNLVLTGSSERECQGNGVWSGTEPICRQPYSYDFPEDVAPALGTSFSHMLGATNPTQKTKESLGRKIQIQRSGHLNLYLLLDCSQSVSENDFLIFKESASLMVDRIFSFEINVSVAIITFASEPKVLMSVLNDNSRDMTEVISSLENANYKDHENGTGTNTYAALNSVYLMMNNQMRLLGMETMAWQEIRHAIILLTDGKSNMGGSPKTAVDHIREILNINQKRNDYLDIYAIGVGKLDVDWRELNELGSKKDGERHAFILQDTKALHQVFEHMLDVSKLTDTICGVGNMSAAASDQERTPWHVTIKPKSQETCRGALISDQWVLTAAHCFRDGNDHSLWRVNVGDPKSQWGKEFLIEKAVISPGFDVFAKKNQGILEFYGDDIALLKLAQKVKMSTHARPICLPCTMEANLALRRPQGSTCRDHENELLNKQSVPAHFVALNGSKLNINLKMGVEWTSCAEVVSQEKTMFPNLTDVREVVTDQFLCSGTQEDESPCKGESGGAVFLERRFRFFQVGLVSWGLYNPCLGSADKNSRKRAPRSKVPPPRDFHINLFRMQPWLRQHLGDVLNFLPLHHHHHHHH

B1: RF16-226 (antibody, human IgG4 S228P, lambda)
heavy: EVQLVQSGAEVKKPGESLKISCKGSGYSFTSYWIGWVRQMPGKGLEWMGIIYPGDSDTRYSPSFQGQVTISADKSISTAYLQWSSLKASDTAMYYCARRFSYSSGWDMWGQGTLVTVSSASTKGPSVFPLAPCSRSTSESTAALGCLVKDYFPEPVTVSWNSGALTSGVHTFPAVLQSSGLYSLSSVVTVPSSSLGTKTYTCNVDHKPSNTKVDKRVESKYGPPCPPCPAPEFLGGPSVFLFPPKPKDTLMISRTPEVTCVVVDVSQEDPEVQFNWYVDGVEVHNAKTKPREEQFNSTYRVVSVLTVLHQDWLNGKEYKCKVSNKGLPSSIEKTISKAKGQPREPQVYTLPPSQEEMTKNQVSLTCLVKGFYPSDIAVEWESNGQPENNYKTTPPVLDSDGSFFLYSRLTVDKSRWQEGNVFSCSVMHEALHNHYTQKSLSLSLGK
light: SYELTQPPSVSVSPGQTARITCSGDALTSKYVAWYQQKSGLAPLLVIYEDTRRPSGIPAKFSGSSSGSVATLTISGAHGDDEADYYCYSTDASGHQRVFGGGTKLTVLSQPKAAPSVTLFPPSSEELQANKATLVCLISDFYPGAVTVAWKADGSPVKAGVETTKPSKQSNNKYAASSYLSLTPEQWKSHRSYSCQVTHEGSTVEKTVAPTECS
notes: pH-dependent anti-C2 antibody from a phage display library; also called WT
Human C2 K274A
  Kd: 291 nM
Human C2 N467A
  Kd: 19.7 nM
Human C2 D454A
  Kd: 247 nM
Human C2 N471A
  Kd: 9.7 nM
